Results reported in article PMC12510028, “A biophysical and molecular characterization of the interaction between the Alzheimer risk factor BIN1 and the neuronal scaffold protein p140Cap” (The Journal of Biological Chemistry, 2025).

System: p140Cap
Assay: GST pull-down from mouse brain homogenate, p140Cap captured
Format: binding
Settings: percent pulldown relative to input, two independent experiments, unpaired t test p = 0.0035
Description: For these experiments, we prepared glutathione S-transferase (GST) control and GST-tagged BIN1-SH3 domain fusion proteins coupled to glutathione-Sepharose and incubated them with mouse brain homogenates to capture bound proteins. Western blot analysis confirmed that p140Cap from the brain extract bound specifically to the BIN1-SH3 fusion protein, but not to the GST control (Fig. 7A).
To further investigate the contributions of electrostatic interactions in BIN1 SH3 domain–mediated protein binding, we conducted GST pull-down assays with mutant BIN1 SH3 domain constructs that lacked charged residues. […]
We used a previously published method with some modifications ([22]). […] The samples were analyzed by immunoblotting with antibodies against total tau (Dako #A0024; 1:1000) and p140Cap (Defilippi’s lab mAb; 1:2000) ([44]). After incubation with infrared dye–conjugated secondary antibodies, signals were recorded using the Odyssey infrared imaging system (LI-COR Biosciences) and quantified with ImageStudio6.0. The % GST pulldown was calculated by comparing signal intensities of p140Cap or tau in the input (10 μg) with the corresponding pull-down signal intensity from 0.5 mg protein and then multiplying by 100.

B1: BIN1-SH3 fusion protein: GST-tagged WT human BIN1-SH3 domain fusion protein coupled to glutathione-Sepharose (protein)
chain: GFMFKVQAQHDYTATDTDELQLKAGDVVLVIPFQNPEEQDEGWLMGVKESDWNQHKELEKCRGVFPENFTERVP
modifications: left off: 6xHis, N-terminal, state not stated | GST, N-terminal, kept
notes: GST-tagged WT human BIN1-SH3 domain fusion protein coupled to glutathione-Sepharose
  fold more p140Cap captured than tau: ~9.4 fold
